The target in data set [1] is Annexin A2 CTD (AnxA2) (Homo sapiens) (UniProt P07355). The data set is described as follows: fluorescence anisotropy. To be noted: 20 mM HEPES pH 7.0, 100 mM NaCl, 1 mM DTT, with 1 mM CaCl2, MgCl2 or EGTA, 50 nM labelled oligo, 0-120 uM protein, temperature not stated. For orientation: In fluorescence polarisation assays a small probe gives low polarisation when free and higher when bound to something large.

Data set [2] deals with AnxA2 mutant #3 K115A;K119A;R205A;K206A (Homo sapiens) (UniProt P07355). The data set is described as follows: fluorescence anisotropy. To be noted: full PS DNA; no 2' modification; 20 mM HEPES pH 7.0, 100 mM NaCl, 1 mM DTT, with 1 mM CaCl2, MgCl2 or EGTA; 50 nM labelled oligo, 0-120 uM protein; temperature not stated.
Sequence of AnxA2 mutant #3 K115A;K119A;R205A;K206A (Homo sapiens) (P07355 34-339 K115A/K119A/R205A/K206A): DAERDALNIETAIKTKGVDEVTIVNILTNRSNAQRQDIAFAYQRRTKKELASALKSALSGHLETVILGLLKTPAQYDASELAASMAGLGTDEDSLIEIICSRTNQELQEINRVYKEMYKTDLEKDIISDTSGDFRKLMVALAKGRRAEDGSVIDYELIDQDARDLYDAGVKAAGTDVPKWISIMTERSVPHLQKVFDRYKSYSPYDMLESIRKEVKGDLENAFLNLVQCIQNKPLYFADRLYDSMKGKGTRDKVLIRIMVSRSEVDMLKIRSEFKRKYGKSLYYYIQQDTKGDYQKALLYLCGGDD

Sequence of Annexin A2 CTD (AnxA2) (Homo sapiens) (P07355 34-339): as the sequence (P07355 34-339 K115A/K119A/R205A/K206A) above, with A82K, A86K, A172R, A173K counted along it

With “TTTTTTTTTTTTTTTTTTTG [T19G PS, labelled]”, in data set [1] (full PS DNA), the Kd – broadly, the free concentration of one partner at which half of the binding sites on the other are occupied at equilibrium, for simple one-to-one binding – came out at 8.2 µM.
“CTGCTAGCCTCTGGATTTGA [PTEN PS, labelled]” registered a Kd in data set [1] (full PS DNA, no 2' modification) of 5 µM. In addition, the binding signal (fold weaker than wild type) in data set [2] was 7.
In data set [1] (full PS, 5-10-5 2'-MOE gapmer, 5-methyl-C), “GCCAGGCTGGTTATGACTCA [5-10-5 MALAT PS, labelled]” gave a Kd of 6.3 µM.
For “GCCAGGCTGGTTATG [5-10 MALAT PS, labelled]”, the equilibrium dissociation constant (Kd) in data set [1] (full PS, 5 nt 2'-MOE 5' wing + 10 nt DNA, 5-methyl-C) turned out to be 9.3 µM.
